Assay results reported in publication PMC5889392, “Cryptic glucocorticoid receptor-binding sites pervade genomic NF-κB response elements”.

Assays:
[1] = biological target: T1, full-length GR (Homo sapiens, UniProt P04150 1-777); assay: fluorescence polarization; settings: triamcinolone acetonide; Fig. 2d legend gives 35 nM; FP: 10 nM 6-FAM dsDNA, 100 mM NaCl, 20 mM Tris-HCl pH 7.4, 5% glycerol, temperature not stated; NMR: 20 mM phosphate pH 6.7, 100 mM NaCl, 1 mM TCEP, 10% D2O …
[2] = biological target: T2, GR DBD (Homo sapiens, UniProt P04150 417-506); assay: X-ray crystallography; 1.85 A; FP: 10 nM 6-FAM dsDNA, 100 mM NaCl, 20 mM Tris-HCl pH 7.4, 5% glycerol, temperature not stated; NMR: 20 mM phosphate pH 6.7, 100 mM NaCl, 1 mM TCEP, 10% D2O, 10 and 25 C (NOESY), 25 C (HSQC); settings: protein: recombinant; tags: N-terminal 6xHis with TEV site
[3] = biological target: T2, GR DBD; assay: fluorescence polarization; two-site binding curve; Kd in Supplementary Table 5; FP: 10 nM 6-FAM dsDNA, 100 mM NaCl, 20 mM Tris-HCl pH 7.4, 5% glycerol, temperature not stated; NMR: 20 mM phosphate pH 6.7, 100 mM NaCl, 1 mM TCEP, 10% D2O, 10 and 25 C (NOESY), 25 C (HSQC); settings: protein: recombinant, tags: N-terminal 6xHis with TEV site, blunt
[4] = biological target: T2, GR DBD; assay: X-ray crystallography; 2.25 A; FP: 10 nM 6-FAM dsDNA, 100 mM NaCl, 20 mM Tris-HCl pH 7.4, 5% glycerol, temperature not stated; NMR: 20 mM phosphate pH 6.7, 100 mM NaCl, 1 mM TCEP, 10% D2O, 10 and 25 C (NOESY), 25 C (HSQC); settings: protein: recombinant; tags: N-terminal 6xHis with TEV site
[5] = biological target: T2, GR DBD; assay: X-ray crystallography; 2.20 A; FP: 10 nM 6-FAM dsDNA, 100 mM NaCl, 20 mM Tris-HCl pH 7.4, 5% glycerol, temperature not stated; NMR: 20 mM phosphate pH 6.7, 100 mM NaCl, 1 mM TCEP, 10% D2O, 10 and 25 C (NOESY), 25 C (HSQC); settings: protein: recombinant; tags: N-terminal 6xHis with TEV site
[6] = biological target: T1, full-length GR; assay: fluorescence polarization; triamcinolone acetonide; FP: 10 nM 6-FAM dsDNA, 100 mM NaCl, 20 mM Tris-HCl pH 7.4, 5% glycerol, temperature not stated; NMR: 20 mM phosphate pH 6.7, 100 mM NaCl, 1 mM TCEP, 10% D2O, 10 and 25 C (NOESY), 25 C (HSQC); settings: protein: recombinant; tags: N-terminal 6xHis; chain copies: 2; label: 5'-FAM on strand 1; blunt
[7] = biological target: T2, GR DBD; assay: X-ray crystallography; 2.40 A refinement; FP: 10 nM 6-FAM dsDNA, 100 mM NaCl, 20 mM Tris-HCl pH 7.4, 5% glycerol, temperature not stated; NMR: 20 mM phosphate pH 6.7, 100 mM NaCl, 1 mM TCEP, 10% D2O, 10 and 25 C (NOESY), 25 C (HSQC); settings: protein: recombinant; tags: N-terminal 6xHis with TEV site

T2 sequence (P04150 417-506): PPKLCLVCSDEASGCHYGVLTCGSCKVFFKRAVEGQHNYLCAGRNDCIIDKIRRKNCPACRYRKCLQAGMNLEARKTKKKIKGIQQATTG
T1 sequence (P04150 whole entry): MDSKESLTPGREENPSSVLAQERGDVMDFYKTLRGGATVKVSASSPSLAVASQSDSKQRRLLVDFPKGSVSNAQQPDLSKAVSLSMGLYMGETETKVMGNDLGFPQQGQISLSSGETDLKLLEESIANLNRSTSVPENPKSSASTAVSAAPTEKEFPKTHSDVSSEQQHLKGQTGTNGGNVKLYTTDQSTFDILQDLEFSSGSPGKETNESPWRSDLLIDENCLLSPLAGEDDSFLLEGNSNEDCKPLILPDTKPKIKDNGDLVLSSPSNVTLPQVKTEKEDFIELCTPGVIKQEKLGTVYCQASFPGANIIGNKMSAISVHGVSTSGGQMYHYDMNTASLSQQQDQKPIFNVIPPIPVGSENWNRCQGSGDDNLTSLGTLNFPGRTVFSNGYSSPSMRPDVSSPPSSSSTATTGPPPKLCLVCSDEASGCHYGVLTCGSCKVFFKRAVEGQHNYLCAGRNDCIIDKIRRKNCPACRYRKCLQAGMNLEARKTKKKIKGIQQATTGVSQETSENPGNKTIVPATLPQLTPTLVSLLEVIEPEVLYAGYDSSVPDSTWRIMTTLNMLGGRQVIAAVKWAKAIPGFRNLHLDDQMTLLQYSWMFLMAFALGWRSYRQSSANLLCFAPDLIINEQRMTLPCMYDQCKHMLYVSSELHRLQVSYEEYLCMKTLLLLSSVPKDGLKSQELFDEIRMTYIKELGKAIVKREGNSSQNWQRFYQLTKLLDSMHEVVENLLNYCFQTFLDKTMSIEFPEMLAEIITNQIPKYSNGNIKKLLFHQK

SGK1 (+)GRE
Kd [1]: 34 nM

B1: IL8 kBRE 16 bp crystal DNA (dsDNA)
DNA 1: ATCGTGGAATTTCCTC
DNA 2: GAGGAAATTCCACGAT
binding result [2]: binds

B2: PLAU kBRE (dsDNA)
DNA 1: CCCTGGGAATTTCCTGATA
DNA 2: TATCAGGAAATTCCCAGGG
binding result ([3]; label: 5'-FAM on strand 1): binds

B3: RELB kBRE 16 bp crystal DNA (dsDNA)
DNA 1: CCGGGGAATTCCGCCG
DNA 2: CGGCGGAATTCCCCGG
binding result [4]: binds

B4: CCL2 kBRE 16 bp crystal DNA (dsDNA)
DNA 1: AGTGGGAATTTCCACT
DNA 2: AGTGGAAATTCCCACT
binding result [5]: binds

B5: PLAU kBRE 16 bp crystal DNA (dsDNA)
DNA 1: ATCAGGAAATTTCCAG
DNA 2: CTGGAAATTTCCTGAT
binding result [5]: binds

B6: IL8 kBRE (dsDNA)
DNA 1: AATCGTGGAATTTCCTCTG
DNA 2: CAGAGGAAATTCCACGATT
Kd [6]: 51 nM

B7: ICAM1 kBRE 16 bp crystal DNA (dsDNA)
DNA 1: TTGGAAATTCCGGAGC
DNA 2: GCTCCGGAATTTCCAA
binding result [7]: binds

B8: CCL2 kBRE (dsDNA)
DNA 1: GAGTGGGAATTTCCACTCA
DNA 2: TGAGTGGAAATTCCCACTC
binding result [3]: binds
